Experimental data published in patent US20240117018A1.

Assays:
Assay in all cases: cell-based or functional assay
[1] = biological target: 1012_11_TC21_3257 Env pseudovirus (HIV-1)
[2] = biological target: CNE52 Env pseudovirus (HIV-1)
[3] = biological target: Ce703010054_2A2 Env pseudovirus (HIV-1)
[4] = biological target: Q259.d2.17 Env pseudovirus (HIV-1)
[5] = biological target: CAP45.2.00.G3 Env pseudovirus (HIV-1)
[6] = biological target: Ce0393_C3 Env pseudovirus (HIV-1)
[7] = biological target: 3415.v1.c1 Env pseudovirus (HIV-1)
[8] = biological target: 246F C1G Env pseudovirus (HIV-1)
[9] = biological target: QH0692.42 Env pseudovirus (HIV-1)
[10] = biological target: ZM214M.PL15 Env pseudovirus (HIV-1)
[11] = biological target: Du156.12 Env pseudovirus (HIV-1)
[12] = biological target: WITO4160.33 Env pseudovirus (HIV-1)
[13] = biological target: RHPA4259.7 Env pseudovirus (HIV-1)
[14] = biological target: TRO.11 Env pseudovirus (HIV-1)
[15] = biological target: SC05_8C11_2344 Env pseudovirus (HIV-1)
[16] = biological target: 3365.v2.c2 Env pseudovirus (HIV-1)
[17] = biological target: ZM247v1(Rev-) Env pseudovirus (HIV-1)
[18] = biological target: ZM197M.PB7 Env pseudovirus (HIV-1)
[19] = biological target: CNE30 Env pseudovirus (HIV-1)
[20] = biological target: PVO.4 Env pseudovirus (HIV-1)
[21] = biological target: 263-8 Env pseudovirus (HIV-1)
[22] = biological target: MS208.A1 Env pseudovirus (HIV-1)
[23] = biological target: 7030102001E5(Rev-) Env pseudovirus (HIV-1)
[24] = biological target: Ce1172_H1 Env pseudovirus (HIV-1)
[25] = biological target: ZM233M.PB6 Env pseudovirus (HIV-1)
[26] = biological target: Ce704809221_1B3 Env pseudovirus (HIV-1)
[27] = biological target: 9004SS_A3_4 Env pseudovirus (HIV-1)
[28] = biological target: Ce2060_G9 Env pseudovirus (HIV-1)
[29] = biological target: CAP210.2.00.E8 Env pseudovirus (HIV-1)
[30] = biological target: CNE21 Env pseudovirus (HIV-1)
[31] = biological target: TRJO4551.58 Env pseudovirus (HIV-1)
[32] = biological target: CNE19 Env pseudovirus (HIV-1)
[33] = biological target: ZM135M.PL10a Env pseudovirus (HIV-1)
[34] = biological target: 6535.3 Env pseudovirus (HIV-1)
[35] = biological target: 6240_08_TA5_4622 Env pseudovirus (HIV-1)
[36] = biological target: Du422.1 Env pseudovirus (HIV-1)

B1: N49P22 (antibody, V domains shown)
V domain 1: HIQLLQSGPQVKKSGDTVRISCETSGYNFVDSRIHWVRQTPEKRLRWMGWINPLQGGVNYAPEFQGRIRMTRDTFIDTVYVDLSGLTPADTAYYYCARGIDGKSYPFHFWGHGTRVTVFS
V domain 2: RFALTQPASVSGSPGQTITITCAGGSVSWFHFPPGKTPRLIIYESSKRPSGVSPRFSGSQSGSTASLIISGLQSDDEGTYFCSILEFFGRGTLVTVLS
With B1 as the binder, how does the IC50 [1] read?
The IC50 was 15.7 µg/mL.

What about the IC80 [1] of the same binder?
Its IC80 is > 50 µg/mL.

What about the MPI [1] of the same binder?
The MPI was 53.

What about the IC50 [2] of the same binder?
The IC50 was 1.7 µg/mL.

What about the IC80 [2] of the same binder?
The IC80 was 10 µg/mL.

And the MPI [2]?
The MPI was 91.

And the IC50 [3]?
The IC50 was > 50 µg/mL.

And the IC80 [3]?
Its IC80 is > 50 µg/mL.

And the MPI [3]?
The MPI was 0.

What about the IC50 [4] of the same binder?
The IC50 was > 50 µg/mL.

And the IC80 [4]?
Its IC80 is > 50 µg/mL.

And the MPI [4]?
Its MPI is 15.

What about the IC50 [5] of the same binder?
Its IC50 is > 50 µg/mL.

What about the IC80 [5] of the same binder?
Its IC80 is > 50 µg/mL.

What about the MPI [5] of the same binder?
Its MPI is 0.

And the IC50 [6]?
Its IC50 is > 50 µg/mL.

And the IC80 [6]?
The IC80 was > 50 µg/mL.

What about the MPI [6] of the same binder?
The MPI was 12.

What about the IC50 [7] of the same binder?
The IC50 was 0.198 µg/mL.

And the IC80 [7]?
Its IC80 is 1.41 µg/mL.

And the MPI [7]?
Its MPI is 96.

And the IC50 [8]?
The IC50 was > 50 µg/mL.

And the IC80 [8]?
The IC80 was > 50 µg/mL.

And the MPI [8]?
Its MPI is 10.

What about the IC50 [9] of the same binder?
The IC50 was 0.592 µg/mL.

What about the IC80 [9] of the same binder?
The IC80 was 2.02 µg/mL.

What about the MPI [9] of the same binder?
The MPI was 100.

What about the IC50 [10] of the same binder?
The IC50 was > 50 µg/mL.

What about the IC80 [10] of the same binder?
Its IC80 is > 50 µg/mL.

What about the MPI [10] of the same binder?
Its MPI is 25.

What about the IC50 [11] of the same binder?
Its IC50 is > 50 µg/mL.

And the IC80 [11]?
The IC80 was > 50 µg/mL.

What about the MPI [11] of the same binder?
Its MPI is 4.

And the IC50 [12]?
The IC50 was 4.86 µg/mL.

And the IC80 [12]?
The IC80 was > 50 µg/mL.

And the MPI [12]?
Its MPI is 74.

What about the IC50 [13] of the same binder?
The IC50 was 0.637 µg/mL.

What about the IC80 [13] of the same binder?
The IC80 was 5.6 µg/mL.

What about the MPI [13] of the same binder?
Its MPI is 92.

What about the IC50 [14] of the same binder?
The IC50 was 0.283 µg/mL.

What about the IC80 [14] of the same binder?
The IC80 was 1.36 µg/mL.

And the MPI [14]?
The MPI was 99.

What about the IC50 [15] of the same binder?
The IC50 was 0.251 µg/mL.

And the IC80 [15]?
Its IC80 is 2.16 µg/mL.

And the MPI [15]?
Its MPI is 97.

What about the IC50 [16] of the same binder?
The IC50 was 0.254 µg/mL.

What about the IC80 [16] of the same binder?
The IC80 was 0.857 µg/mL.

And the MPI [16]?
The MPI was 98.

What about the IC50 [17] of the same binder?
The IC50 was > 50 µg/mL.

And the IC80 [17]?
Its IC80 is > 50 µg/mL.

And the MPI [17]?
Its MPI is 11.

What about the IC50 [18] of the same binder?
Its IC50 is 2.58 µg/mL.

What about the IC80 [18] of the same binder?
The IC80 was 25.1 µg/mL.

And the MPI [18]?
Its MPI is 84.

What about the IC50 [19] of the same binder?
Its IC50 is > 50 µg/mL.

What about the IC80 [19] of the same binder?
Its IC80 is > 50 µg/mL.

And the MPI [19]?
Its MPI is 30.

What about the IC50 [20] of the same binder?
The IC50 was 0.433 µg/mL.

And the IC80 [20]?
The IC80 was 1.49 µg/mL.

What about the MPI [20] of the same binder?
The MPI was 100.

What about the IC50 [21] of the same binder?
The IC50 was 1.83 µg/mL.

And the IC80 [21]?
The IC80 was 18.5 µg/mL.

What about the MPI [21] of the same binder?
The MPI was 89.

What about the IC50 [22] of the same binder?
The IC50 was > 50 µg/mL.

What about the IC80 [22] of the same binder?
The IC80 was > 50 µg/mL.

And the MPI [22]?
Its MPI is 17.

What about the IC50 [23] of the same binder?
Its IC50 is > 50 µg/mL.

What about the IC80 [23] of the same binder?
Its IC80 is > 50 µg/mL.

And the MPI [23]?
The MPI was 21.

What about the IC50 [24] of the same binder?
The IC50 was > 50 µg/mL.

And the IC80 [24]?
Its IC80 is > 50 µg/mL.

What about the MPI [24] of the same binder?
Its MPI is 0.

What about the IC50 [25] of the same binder?
Its IC50 is > 50 µg/mL.

And the IC80 [25]?
Its IC80 is > 50 µg/mL.

What about the MPI [25] of the same binder?
Its MPI is 2.

What about the IC50 [26] of the same binder?
Its IC50 is 15.8 µg/mL.

What about the IC80 [26] of the same binder?
The IC80 was > 50 µg/mL.

What about the MPI [26] of the same binder?
The MPI was 60.

What about the IC50 [27] of the same binder?
The IC50 was > 50 µg/mL.

And the IC80 [27]?
Its IC80 is > 50 µg/mL.

And the MPI [27]?
Its MPI is 42.

What about the IC50 [28] of the same binder?
Its IC50 is > 50 µg/mL.

And the IC80 [28]?
The IC80 was > 50 µg/mL.

And the MPI [28]?
Its MPI is 19.

What about the IC50 [29] of the same binder?
Its IC50 is > 50 µg/mL.

What about the IC80 [29] of the same binder?
The IC80 was > 50 µg/mL.

What about the MPI [29] of the same binder?
The MPI was 6.

What about the IC50 [30] of the same binder?
Its IC50 is > 50 µg/mL.

And the IC80 [30]?
Its IC80 is > 50 µg/mL.

What about the MPI [30] of the same binder?
Its MPI is 0.

And the IC50 [31]?
The IC50 was > 50 µg/mL.

What about the IC80 [31] of the same binder?
The IC80 was > 50 µg/mL.

And the MPI [31]?
The MPI was 28.

And the IC50 [32]?
The IC50 was 0.873 µg/mL.

And the IC80 [32]?
The IC80 was 8.19 µg/mL.

What about the MPI [32] of the same binder?
Its MPI is 92.

And the IC50 [33]?
Its IC50 is > 50 µg/mL.

What about the IC80 [33] of the same binder?
Its IC80 is > 50 µg/mL.

What about the MPI [33] of the same binder?
Its MPI is 27.

And the IC50 [34]?
Its IC50 is > 50 µg/mL.

What about the IC80 [34] of the same binder?
The IC80 was > 50 µg/mL.

What about the MPI [34] of the same binder?
Its MPI is 5.

What about the IC50 [35] of the same binder?
Its IC50 is 2.33 µg/mL.

And the IC80 [35]?
Its IC80 is 9.76 µg/mL.

What about the MPI [35] of the same binder?
The MPI was 93.

What about the IC50 [36] of the same binder?
Its IC50 is > 50 µg/mL.

And the IC80 [36]?
Its IC80 is > 50 µg/mL.

What about the MPI [36] of the same binder?
Its MPI is 4.
